Patent US20040018172A1 (US Dept. of Health and Human Services, published 2004)

T1: ^125I-IFN-α2b binding site on Daudi and WISH cells (human)
T1 chain 1: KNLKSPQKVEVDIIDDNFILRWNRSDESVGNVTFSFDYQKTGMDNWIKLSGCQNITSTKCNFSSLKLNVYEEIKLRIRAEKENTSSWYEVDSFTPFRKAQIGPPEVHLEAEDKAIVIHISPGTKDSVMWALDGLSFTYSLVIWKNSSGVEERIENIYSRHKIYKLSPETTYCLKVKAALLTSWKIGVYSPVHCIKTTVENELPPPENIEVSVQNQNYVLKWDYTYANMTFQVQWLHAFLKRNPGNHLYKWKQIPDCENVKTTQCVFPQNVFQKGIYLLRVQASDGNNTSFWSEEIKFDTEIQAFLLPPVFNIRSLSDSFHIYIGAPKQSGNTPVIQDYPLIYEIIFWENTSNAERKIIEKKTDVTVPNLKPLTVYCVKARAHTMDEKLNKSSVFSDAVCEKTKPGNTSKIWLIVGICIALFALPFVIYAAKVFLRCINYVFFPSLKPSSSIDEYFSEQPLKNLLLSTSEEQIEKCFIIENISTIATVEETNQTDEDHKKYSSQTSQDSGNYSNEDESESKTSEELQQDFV
T1 chain 2: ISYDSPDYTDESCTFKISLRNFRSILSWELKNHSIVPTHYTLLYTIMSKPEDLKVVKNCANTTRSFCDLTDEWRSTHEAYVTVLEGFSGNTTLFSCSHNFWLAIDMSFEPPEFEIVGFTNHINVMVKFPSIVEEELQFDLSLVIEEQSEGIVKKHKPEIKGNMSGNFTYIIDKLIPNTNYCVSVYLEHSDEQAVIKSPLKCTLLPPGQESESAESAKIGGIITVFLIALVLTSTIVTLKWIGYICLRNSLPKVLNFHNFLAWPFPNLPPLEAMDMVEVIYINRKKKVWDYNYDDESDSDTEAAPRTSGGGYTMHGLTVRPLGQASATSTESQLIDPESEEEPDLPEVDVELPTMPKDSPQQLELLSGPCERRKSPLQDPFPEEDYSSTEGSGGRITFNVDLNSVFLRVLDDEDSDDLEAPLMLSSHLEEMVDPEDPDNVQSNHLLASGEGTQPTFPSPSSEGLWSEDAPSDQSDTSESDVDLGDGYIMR


Key:
[1] = target: T1, ^125I-IFN-α2b binding site on Daudi and …; assay: displacement of ^125I-IFN-α2b from Daudi cells (competitor: ^125I-IFN-α2b)
[2] = target: T1, ^125I-IFN-α2b binding site on Daudi and …; assay: displacement of ^125I-IFN-α2b from WISH cells (competitor: ^125I-IFN-α2b)

IC50 [1] | IC50 [2] | Binder
> 0.4 µg/mL | > 0.2 µg/mL | IFN-α21a (ligand, human, UniProt P01568 24-189, looked up, mature; Recombinant, made in E. coli from pQE30/A21 and purified on Ni-NTA, so an amino-terminal hexa-histidine tag may be present; also called interferon-α21a; IFNA21) CDLPQTHSLGNRRALILLAQMGRISPFSCLKDRHDFGFPQEEFDGNQFQKAQAISVLHEMIQQTFNLFSTKDSSATWEQSLLEKFSTELNQQLNDLEACVIQEVGVEETPLMNVDSILAVKKYFQRITLYLTEKKYSPCAWEVVRAEIMRSFSLSKIFQERLRRKE
> 0.4 µg/mL | > 0.2 µg/mL | HY-2: IFN-α21a(1-95)/IFN-α2c(96-166) (ligand, Expressed from pQE30 in E. coli and purified on Ni-NTA, so an amino-terminal hexa-histidine tag may be present; also called AF085804) CDLPQTHSLGNRRALILLAQMGRISPFSCLKDRHDFGFPQEEFDGNQFQKAQAISVLHEMIQQTFNLFSTKDSSATWEQSLLEKFSTELNQQLNDLEACVIQGVGVTETPLMKEDSILAVRKYFQRITLYLKEKKYSPCAWEVVRAEIMRSFSLSTNLQESLRSKE
